Measurements reported in US20120077731A1 (Ablynx, published 2012).
Numbering of substitutions follows the chain as printed. Where “and” joins values, the source holds several entries; their conditions need not be identical. Equal values may be shown once.

B1: IL6R12 (VHH)
VHH: EVQLVESGGGLVQAGGSLRLSCAASGRTFSSYDMGWYRQAPGKEREFVAIITWNSSTYYADSVKGRFTISRDNAKNTVYLQMNSLKPEDTAIYYCNAQYGLGYAEDYWGQGTQVTVSS
notes: also called PMP35F4; not shown: C-terminal c-myc and (His)6 tags
B2: IL6R10 (VHH)
VHH: EVQLVESGGGLVQAGGSLRLSCAASGRTFSSYDMGWYRQAPGKEREFVAVIHWSSGSTYYADPVKGRFTISRDNAKNTVYLQMNSLKPEDTAIYYCNAFLPGPEGFHDYWGQGTQVTVSS
notes: also called PMP35C10; not shown: C-terminal c-myc and (His)6 tags
B3: IL6R14 (VHH)
VHH: EVQLVESGGGLVQPGGSLRLSCAASGFSLDYYAIGWFRQAPGKEREGVSCMDSSSGTTSTYYSDSVKGRFTISRDDAKNTVYLQMNSLKPEDTAVYYCAADGHLNWGQRYVPCSQISWRGWNDYWGQGTQVTVSS
notes: also called PMP40H5; not shown: C-terminal c-myc and (His)6 tags
B4: IL6R05 (VHH)
VHH: EVQLVESGGGLVQPGGSLRLSCAASGFTFGSYDMSWVRQAPGKGPEWVSAINSGGGSTYYADSVKGRFTISRDNAKNTLYLQMNSLKPEDTAVYYCATDWRYSDYDLPLPPPGDYWGQGTQVTVSS
notes: also called PMP32E10; not shown: C-terminal c-myc and (His)6 tags
B5: PMP7C4 (VHH)
VHH: EVQLVESGGGLVQPGGSLRLSCAASGTTFRINVMAWYRQAPGKGRELVAGIITNGSTSYADSVKGRFTISRDNAKNTLYLQMNSLRPEDTAVYYCAFVTTNSDYDLGRDYWGQGTLVTVSS
notes: not shown: c-myc and (His)6 tags
B6: PMP7F4 (VHH)
VHH: B5 VHH with R30K, I31V, T53N, N54G, S58T
B7: IL6R85 (VHH)
VHH: EVQLVESGGGLVQPGGSLRLSCAASGFTFDDYGMSWVRQAPGRGLEWVSAISWNGNNTYYTESMKGRFTISRDNAKNTLYLQMNSLRPEDTAVYYCVKGSTAIVGVPPTYPDEYDYWGQGTLVTVSS
notes: IL6R13 variant, tested as periplasmic extract
B8: IL6R89 (VHH)
VHH: B7 VHH with L45T
notes: as for B7
B9: IL6R87 (VHH)
VHH: B7 VHH with R43K, G44A, L45T
notes: as for B7
B10: IL6R86 (VHH)
VHH: B7 VHH with G44A
notes: as for B7
B11: IL6R90 (VHH)
VHH: B7 VHH with R43K, G44A
notes: as for B7

Key:
Human soluble IL-6R [1] = target: T1, Human soluble IL-6R (human, UniProt P08887 20-358); assay: competition for IL-6R, competitor reference Fab, summary table C-13
T1 construct: Soluble recombinant form; biotinylated in some assays; also called hIL-6R; human IL-6R
T1 sequence (looked up): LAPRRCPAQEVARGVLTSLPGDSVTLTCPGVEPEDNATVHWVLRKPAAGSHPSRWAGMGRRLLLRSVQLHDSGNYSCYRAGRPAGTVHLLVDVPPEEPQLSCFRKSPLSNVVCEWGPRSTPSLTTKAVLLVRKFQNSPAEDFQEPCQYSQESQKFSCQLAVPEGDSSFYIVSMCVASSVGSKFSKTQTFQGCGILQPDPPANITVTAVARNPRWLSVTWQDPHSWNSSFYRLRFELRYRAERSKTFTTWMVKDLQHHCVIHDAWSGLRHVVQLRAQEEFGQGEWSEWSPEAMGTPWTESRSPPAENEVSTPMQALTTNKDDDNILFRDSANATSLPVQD

Human soluble IL-6R [2] = target: T1, Human soluble IL-6R; assay: Biacore off-rate, periplasmic extract
Human soluble IL-6R [3] = target: T1, Human soluble IL-6R; assay: Alphascreen, inhibition of bio-IL-6 binding to IL-6R
Method: (§1) Finally streptavidin donor beads were added and after 1 hour incubator the plate was read on the Envision microplate reader.

Human soluble IL-6R [4] = target: T1, Human soluble IL-6R; assay: Alphascreen, 100 nM Nanobody, 0.4 nM bio-IL-6R; competitor: reference Fab
Mouse IL-6R = target: T2, Mouse IL-6R (mouse, UniProt P22272 20-364, limits assumed); assay: ELISA: plate coated with 1 µg/ml mouse IL-6R, 500 nM Nanobody, anti-myc + anti-mouse-HRP
T2 construct: also called mouse sIL-6R
T2 sequence (looked up): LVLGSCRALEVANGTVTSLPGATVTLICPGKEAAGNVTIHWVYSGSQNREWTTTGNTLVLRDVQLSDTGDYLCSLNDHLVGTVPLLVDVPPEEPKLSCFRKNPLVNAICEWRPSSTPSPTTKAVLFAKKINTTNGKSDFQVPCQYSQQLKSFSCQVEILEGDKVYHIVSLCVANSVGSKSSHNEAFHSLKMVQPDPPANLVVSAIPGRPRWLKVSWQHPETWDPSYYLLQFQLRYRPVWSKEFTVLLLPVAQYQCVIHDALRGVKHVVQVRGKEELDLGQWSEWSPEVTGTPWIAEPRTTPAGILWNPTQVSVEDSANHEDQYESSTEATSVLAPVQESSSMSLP
Method: Detection was performed with anti-myc and anti-mouse-HRP as first and second antibody respectively.

[5] = target: T3, Human membrane IL-6R on cells (human, UniProt P08887 20-468); assay: cell-based or functional assay
T3 sequence (looked up): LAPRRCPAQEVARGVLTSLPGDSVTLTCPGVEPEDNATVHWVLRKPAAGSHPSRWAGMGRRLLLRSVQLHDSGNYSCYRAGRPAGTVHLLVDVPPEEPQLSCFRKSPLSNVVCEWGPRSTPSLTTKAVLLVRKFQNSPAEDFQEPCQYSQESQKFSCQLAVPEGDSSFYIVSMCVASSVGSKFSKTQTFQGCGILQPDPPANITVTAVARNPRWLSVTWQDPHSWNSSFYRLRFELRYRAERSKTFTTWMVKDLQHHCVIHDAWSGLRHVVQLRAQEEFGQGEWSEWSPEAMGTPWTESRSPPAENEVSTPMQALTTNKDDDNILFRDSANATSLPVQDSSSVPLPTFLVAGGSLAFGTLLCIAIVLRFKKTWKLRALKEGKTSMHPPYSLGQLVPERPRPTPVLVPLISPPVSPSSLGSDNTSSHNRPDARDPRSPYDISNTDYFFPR

[6] = target: T3, Human membrane IL-6R on cells; assay: cell-based or functional assay; remark: listed apart in the source
Human soluble IL-6R [7] = target: T1, Human soluble IL-6R; assay: summary table C-13 of Nanobody characteristics, Kd on IL-6R
Method: (§2) Nanobodies were injected at 5 different concentrations between 1 and 50 nM. Flow rate was 45 μl/min in all experiments. Association and dissociation phase were 3 and 10 min, respectively. The chip was regenerated using Glycine/HCl pH 1.5.

Human soluble IL-6R [8] = target: T1, Human soluble IL-6R; assay: SPR Biacore 3000, IL-6R amine-coupled to CM5
Method: as §2

[9] = target: T3, Human membrane IL-6R on cells; assay: cell-based or functional assay; remark: listed apart in the source
Human soluble IL-6R [10] = target: T1, Human soluble IL-6R; assay: inhibition of the IL-6/IL-6R interaction, summary table C-13
Method: as §1

Human soluble IL-6R [11] = target: T1, Human soluble IL-6R; assay: SPR (Biacore), binding curves at several concentrations of purified Nanobody on IL-6R
Cyno plasma sIL-6R = target: T4, Cyno plasma sIL-6R (cynomolgus monkey, UniProt A0A2K5WN54 60-396); assay: plasma potency assay, cyno plasma ([IL6R]: ~0.4 nM, [IL6]: 2.4 nM printed); sIL-6R captured on BN-12, bound IL-6 detected; blocked ligand IL-6
T4 construct: also called cynomolgus sIL-6R
T4 sequence: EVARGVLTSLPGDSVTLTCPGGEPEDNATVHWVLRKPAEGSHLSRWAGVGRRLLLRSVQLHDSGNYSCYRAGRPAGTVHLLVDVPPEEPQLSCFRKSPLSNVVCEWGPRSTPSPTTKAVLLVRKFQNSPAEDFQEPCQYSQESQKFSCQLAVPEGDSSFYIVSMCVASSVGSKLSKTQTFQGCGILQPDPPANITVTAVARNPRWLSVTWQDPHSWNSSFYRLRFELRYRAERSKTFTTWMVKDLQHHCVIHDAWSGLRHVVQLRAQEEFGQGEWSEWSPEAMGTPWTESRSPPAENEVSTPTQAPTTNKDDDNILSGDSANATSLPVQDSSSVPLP

Human plasma sIL-6R [12] = target: T5, Human plasma sIL-6R (human, UniProt P08887 20-355, limits assumed); assay: plasma potency assay, human plasma, 42 nM IL6; sIL-6R captured on BN-12, bound IL-6 detected; blocked ligand IL-6
T5 construct: also called plasma-derived human IL-6R
T5 sequence (looked up): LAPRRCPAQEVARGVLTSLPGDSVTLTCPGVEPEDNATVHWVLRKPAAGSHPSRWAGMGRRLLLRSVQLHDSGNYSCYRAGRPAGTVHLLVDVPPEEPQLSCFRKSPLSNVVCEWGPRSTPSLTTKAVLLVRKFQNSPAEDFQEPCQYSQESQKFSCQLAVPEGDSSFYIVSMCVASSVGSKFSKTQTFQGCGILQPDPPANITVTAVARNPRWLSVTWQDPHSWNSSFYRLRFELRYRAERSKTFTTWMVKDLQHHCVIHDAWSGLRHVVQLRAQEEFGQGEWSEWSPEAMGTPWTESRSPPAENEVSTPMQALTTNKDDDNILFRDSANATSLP

Human plasma sIL-6R [13] = target: T5, Human plasma sIL-6R; assay: plasma potency assay, human plasma ([IL6R]: ~0.4 nM, [IL6]: 2.4 nM printed); sIL-6R captured on BN-12, bound IL-6 detected; blocked ligand IL-6
Human soluble IL-6R [14] = target: T1, Human soluble IL-6R; assay: Biacore off-rate, periplasmic extracts

| Binder | Ref Fab competition (%) (Human soluble IL-6R [1]) | koff (Human soluble IL-6R [2]) [s⁻¹] | IC50 (Human soluble IL-6R [3]) [nM] | Residual reference-Fab binding to IL-6R (%) (Human soluble IL-6R [4]) | binding result (Mouse IL-6R) | IC50 (nM) XG-1 [5] [nM] | IC50 (nM), TF1 cell proliferation [6] [nM] | Kd (Human soluble IL-6R [7]) [nM] | Kd (Human soluble IL-6R [8]) [nM] | koff (Human soluble IL-6R [8]) | kon (Human soluble IL-6R [8]) [M⁻¹ s⁻¹] | IC50 (nM), XG-1 cell proliferation [9] [nM] | IC50 (Human soluble IL-6R [10]) [nM] | koff (Human soluble IL-6R [14]) [s⁻¹] | further results |
| --- | --- | --- | --- | --- | --- | --- | --- | --- | --- | --- | --- | --- | --- | --- | --- |
| B1 | 103 | 0.000896 | 0.517 | 103 | no binding (tested: 500 nM) | 2.8 | 6.8 | 1.7 | 1.7 | 0.00116 s⁻¹ and 0.000896 s⁻¹ | 678000 | 2.8 | 0.52 | – | – |
| B2 | 102 | 0.000509 | 0.596 | 102 | no binding (tested: 500 nM) | 2.5 | 9.9 | 1.3 | 1.3 | 0.000526 s⁻¹ and 0.000509 s⁻¹ | 414000 | 2.5 | 0.6 | – | – |
| B3 | 96 | 0.000114 | 0.222 | 96 | no binding (tested: 500 nM) | 0.6 | 1.5 | 0.3 | 0.3 | 0.0001 s⁻¹ and 0.000114 s⁻¹ | 402000 | 0.6 | 0.22 | – | IC50 (nM) + HSA, XG-1 cell proliferation [9]: 0.8 nM |
| B4 | 64 | 0.00127 | 0.626 | 64 | no binding (tested: 500 nM) | 7.3 | 38 | 9.8 | 9.8 | 0.00141 s⁻¹ and 0.00127 s⁻¹ | 144000 | 7.3 | 0.63 | – | – |
| B5 | – | – | – | – | – | – | – | – | – | – | – | – | – | – | Kd (Human soluble IL-6R [11]): 0.34 nM; IC50 (Cyno plasma sIL-6R): 0.08 nM; IC50 (Human plasma sIL-6R [12]): 0.9 nM; IC50 (Human plasma sIL-6R [13]): 0.21 nM |
| B6 | – | – | – | – | – | – | – | – | – | – | – | – | – | – | Kd (Human soluble IL-6R [11]): 0.48 nM; IC50 (Cyno plasma sIL-6R): 0.09 nM; IC50 (Human plasma sIL-6R [12]): 1.2 nM; IC50 (Human plasma sIL-6R [13]): 0.24 nM |
| B7 | – | – | – | – | – | – | – | – | – | – | – | – | – | 0.0021 | – |
| B8 | – | – | – | – | – | – | – | – | – | – | – | – | – | 0.00019 | – |
| B9 | – | – | – | – | – | – | – | – | – | – | – | – | – | 0.00011 | – |
| B10 | – | – | – | – | – | – | – | – | – | – | – | – | – | 0.0017 | – |
| B11 | – | – | – | – | – | – | – | – | – | – | – | – | – | 0.0019 | – |
